Data taken from the supplement of paper PMC9112550, “Optimization of the antimicrobial peptide Bac7 by deep mutational scanning” (BMC Biology, 2022).

Test system: Escherichia coli TOP10
Assay: shrunken log2 fold change of peptide-encoding DNA abundance (4.5 h post-induction vs induction); higher = less antimicrobial activity (less host growth inhibition)
Details: time post-induction: 4.5 h; library: site-saturation at positions 5, 18, 19, 20
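Also: peptides expressed intracellularly from a pBAD plasmid library in pooled LB shake-flask culture, induced with 0.3% L-arabinose, DNA abundance read by NGS, three biological replicates, DESeq2 with apeglm shrinkage.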

RRIRNRPPRLPRPRPRPCEKPRP
shrunken log2 fold change: -0.0478

RRIRCRPPRLPRPRPRPAYQPRP
shrunken log2 fold change: -0.0687

RRIRIRPPRLPRPRPRPPIHPRP
shrunken log2 fold change: -0.614

RRIRPRPPRLPRPRPRPAHFPRP
shrunken log2 fold change: 0.111

RRIRFRPPRLPRPRPRPNFVPRP
shrunken log2 fold change: -0.269

RRIRSRPPRLPRPRPRPIISPRP
shrunken log2 fold change: -0.472

RRIRYRPPRLPRPRPRPGSLPRP
shrunken log2 fold change: -0.0848

RRIRMRPPRLPRPRPRPACTPRP
shrunken log2 fold change: 0.623

RRIRCRPPRLPRPRPRPMQGPRP
shrunken log2 fold change: -0.0484

RRIRIRPPRLPRPRPRPYEEPRP
shrunken log2 fold change: -0.828

RRIRMRPPRLPRPRPRPINQPRP
shrunken log2 fold change: 0.257

RRIRKRPPRLPRPRPRPNQIPRP
shrunken log2 fold change: 0.105

RRIRHRPPRLPRPRPRPQVWPRP
shrunken log2 fold change: -0.112

RRIRIRPPRLPRPRPRPAFYPRP
shrunken log2 fold change: -0.387

RRIRTRPPRLPRPRPRPTNWPRP
shrunken log2 fold change: 0.155

RRIRARPPRLPRPRPRPPALPRP
shrunken log2 fold change: 0.415

RRIRFRPPRLPRPRPRPCFGPRP
shrunken log2 fold change: -0.0611

RRIRSRPPRLPRPRPRPKLSPRP
shrunken log2 fold change: 0.352

RRIRNRPPRLPRPRPRPQEFPRP
shrunken log2 fold change: -0.0043

RRIRERPPRLPRPRPRPEKFPRP
shrunken log2 fold change: -0.287

RRIRFRPPRLPRPRPRPWRPPRP
shrunken log2 fold change: 0.275

RRIRHRPPRLPRPRPRPMHRPRP
shrunken log2 fold change: 0.00128

RRIRVRPPRLPRPRPRPTAFPRP
shrunken log2 fold change: 0.0786

RRIRYRPPRLPRPRPRPAIDPRP
shrunken log2 fold change: -0.0997

RRIRERPPRLPRPRPRPELVPRP
shrunken log2 fold change: 0.0791

RRIRQRPPRLPRPRPRPKKYPRP
shrunken log2 fold change: -0.0221

RRIRPRPPRLPRPRPRPYFRPRP
shrunken log2 fold change: -0.463

RRIRQRPPRLPRPRPRPQKVPRP
shrunken log2 fold change: -0.0255

RRIRIRPPRLPRPRPRPTMDPRP
shrunken log2 fold change: -0.118

RRIRCRPPRLPRPRPRPMWKPRP
shrunken log2 fold change: -0.0547

RRIRTRPPRLPRPRPRPFPNPRP
shrunken log2 fold change: -0.105

RRIRQRPPRLPRPRPRPYEEPRP
shrunken log2 fold change: -0.434

RRIRPRPPRLPRPRPRPMNCPRP
shrunken log2 fold change: -0.138

RRIRIRPPRLPRPRPRPHDWPRP
shrunken log2 fold change: -0.317

RRIRMRPPRLPRPRPRPWEDPRP
shrunken log2 fold change: -0.0122

RRIRERPPRLPRPRPRPMRIPRP
shrunken log2 fold change: 0.257

RRIRHRPPRLPRPRPRPMSWPRP
shrunken log2 fold change: -0.106

RRIRVRPPRLPRPRPRPYIEPRP
shrunken log2 fold change: -0.584

RRIRPRPPRLPRPRPRPYGRPRP
shrunken log2 fold change: -0.213

RRIRCRPPRLPRPRPRPEPQPRP
shrunken log2 fold change: 0.468

RRIRIRPPRLPRPRPRPMDKPRP
shrunken log2 fold change: -0.448

RRIRPRPPRLPRPRPRPNWLPRP
shrunken log2 fold change: 0.124

RRIRERPPRLPRPRPRPEEFPRP
shrunken log2 fold change: -0.0217

RRIRDRPPRLPRPRPRPPCVPRP
shrunken log2 fold change: 0.152

RRIRARPPRLPRPRPRPESIPRP
shrunken log2 fold change: -0.0955

RRIRRRPPRLPRPRPRPHYHPRP
shrunken log2 fold change: -0.35

RRIRQRPPRLPRPRPRPLNWPRP
shrunken log2 fold change: -0.133

RRIRKRPPRLPRPRPRPNHGPRP
shrunken log2 fold change: -0.0607

RRIRHRPPRLPRPRPRPAQPPRP
shrunken log2 fold change: 0.1

RRIRGRPPRLPRPRPRPTVYPRP
shrunken log2 fold change: 0.185

RRIRHRPPRLPRPRPRPFHRPRP
shrunken log2 fold change: 0.00911

RRIRMRPPRLPRPRPRPCLEPRP
shrunken log2 fold change: 0.126

RRIRERPPRLPRPRPRPLAMPRP
shrunken log2 fold change: -0.246

RRIRCRPPRLPRPRPRPWMHPRP
shrunken log2 fold change: -0.621

RRIRGRPPRLPRPRPRPCTMPRP
shrunken log2 fold change: -0.063

RRIRSRPPRLPRPRPRPVMFPRP
shrunken log2 fold change: -0.118

RRIRMRPPRLPRPRPRPETCPRP
shrunken log2 fold change: 1.67

RRIRMRPPRLPRPRPRPFTQPRP
shrunken log2 fold change: 0.215

RRIRDRPPRLPRPRPRPGPCPRP
shrunken log2 fold change: 0.244

RRIRTRPPRLPRPRPRPDLFPRP
shrunken log2 fold change: -0.0784

RRIRSRPPRLPRPRPRPYARPRP
shrunken log2 fold change: -0.351

RRIRLRPPRLPRPRPRPKHKPRP
shrunken log2 fold change: -0.103

RRIRWRPPRLPRPRPRPRCVPRP
shrunken log2 fold change: 0.117

RRIRWRPPRLPRPRPRPKNHPRP
shrunken log2 fold change: -0.248

RRIRNRPPRLPRPRPRPVVMPRP
shrunken log2 fold change: 0.00659

RRIRHRPPRLPRPRPRPHDAPRP
shrunken log2 fold change: -0.357

RRIRLRPPRLPRPRPRPSFNPRP
shrunken log2 fold change: -0.529

RRIRDRPPRLPRPRPRPVNQPRP
shrunken log2 fold change: 0.0383

RRIRHRPPRLPRPRPRPYHFPRP
shrunken log2 fold change: -0.686

RRIRNRPPRLPRPRPRPSEGPRP
shrunken log2 fold change: -0.0276

RRIRHRPPRLPRPRPRPFLLPRP
shrunken log2 fold change: -0.502

RRIRPRPPRLPRPRPRPSDMPRP
shrunken log2 fold change: -0.273

RRIRDRPPRLPRPRPRPYCEPRP
shrunken log2 fold change: -0.42

RRIRPRPPRLPRPRPRPSCDPRP
shrunken log2 fold change: -0.273

RRIRGRPPRLPRPRPRPMMEPRP
shrunken log2 fold change: 0.372

RRIRMRPPRLPRPRPRPIRKPRP
shrunken log2 fold change: 0.553

RRIRWRPPRLPRPRPRPYTCPRP
shrunken log2 fold change: -1.7

RRIRCRPPRLPRPRPRPWWWPRP
shrunken log2 fold change: -0.1

RRIRWRPPRLPRPRPRPIDQPRP
shrunken log2 fold change: 0.105

RRIRCRPPRLPRPRPRPQWEPRP
shrunken log2 fold change: 0.0667

RRIRFRPPRLPRPRPRPRFVPRP
shrunken log2 fold change: 0.181

RRIRRRPPRLPRPRPRPIAQPRP
shrunken log2 fold change: 0.129

RRIRMRPPRLPRPRPRPQCRPRP
shrunken log2 fold change: 0.253

RRIRIRPPRLPRPRPRPGDEPRP
shrunken log2 fold change: -0.0396

RRIRKRPPRLPRPRPRPSTRPRP
shrunken log2 fold change: -0.114

RRIRKRPPRLPRPRPRPTSVPRP
shrunken log2 fold change: 0.0245

RRIRHRPPRLPRPRPRPRGMPRP
shrunken log2 fold change: 0.207

RRIRARPPRLPRPRPRPHHYPRP
shrunken log2 fold change: -0.223

RRIRKRPPRLPRPRPRPCEMPRP
shrunken log2 fold change: 0.0303

RRIRQRPPRLPRPRPRPTQEPRP
shrunken log2 fold change: 0.124

RRIRGRPPRLPRPRPRPSMTPRP
shrunken log2 fold change: 2.35

RRIRIRPPRLPRPRPRPKSVPRP
shrunken log2 fold change: -0.0925

RRIRKRPPRLPRPRPRPITHPRP
shrunken log2 fold change: -0.0971

RRIRPRPPRLPRPRPRPAWVPRP
shrunken log2 fold change: 0.401

RRIRQRPPRLPRPRPRPEFAPRP
shrunken log2 fold change: 0.482

RRIRFRPPRLPRPRPRPTYYPRP
shrunken log2 fold change: -0.421

RRIRDRPPRLPRPRPRPTNAPRP
shrunken log2 fold change: 0.182

RRIRFRPPRLPRPRPRPNFWPRP
shrunken log2 fold change: 0.15

RRIRFRPPRLPRPRPRPHGYPRP
shrunken log2 fold change: -0.707

RRIRQRPPRLPRPRPRPAFAPRP
shrunken log2 fold change: 0.344

RRIRVRPPRLPRPRPRPMYEPRP
shrunken log2 fold change: -0.774

RRIRTRPPRLPRPRPRPPMGPRP
shrunken log2 fold change: 0.271

RRIRPRPPRLPRPRPRPFWYPRP
shrunken log2 fold change: -0.525

RRIRNRPPRLPRPRPRPREHPRP
shrunken log2 fold change: 0.0287

RRIRLRPPRLPRPRPRPMTGPRP
shrunken log2 fold change: -0.0115

RRIRSRPPRLPRPRPRPAKGPRP
shrunken log2 fold change: 0.176

RRIRDRPPRLPRPRPRPCHNPRP
shrunken log2 fold change: -0.184

RRIRYRPPRLPRPRPRPAKWPRP
shrunken log2 fold change: 0.0339

RRIRNRPPRLPRPRPRPAFSPRP
shrunken log2 fold change: -0.183
